The results in this text go back to patent US20240317859A1 (published 2024).

Residue numbers refer to the chain shown, from its start. Like-named read-outs stand apart in the source and are kept apart here.

Broadly, the Kd is a measure of binding affinity in units of concentration. Higher therefore signals a looser complex.

Holding throughout (assay): SPR
A general note: Surface plasmon resonance follows binding to a sensor surface in real time, without labels.

In test [1] the target is T1, FcγRIIB/C (CD32b/c) (FcγRIIB) (R&D Systems) (UniProt P31994 46-217).
T1 chain: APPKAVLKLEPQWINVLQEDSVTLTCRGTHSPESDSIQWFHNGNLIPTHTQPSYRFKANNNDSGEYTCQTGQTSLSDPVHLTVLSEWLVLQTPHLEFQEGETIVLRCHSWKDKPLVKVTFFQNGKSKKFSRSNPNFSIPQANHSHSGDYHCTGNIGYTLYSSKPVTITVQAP

For test [2], the target named is Fc gamma RIIIA/CD16a, CF (FcγRIIIA(V158)) (R&D Systems).
The target of test [3] is T1, FcγRIIB/C (CD32b/c) (FcγRIIB) (R&D …).

Fc gamma RIIIA/CD16a, CF (FcγRIIIA(V158)) (R&D Systems), sequence (chain, as listed by the source): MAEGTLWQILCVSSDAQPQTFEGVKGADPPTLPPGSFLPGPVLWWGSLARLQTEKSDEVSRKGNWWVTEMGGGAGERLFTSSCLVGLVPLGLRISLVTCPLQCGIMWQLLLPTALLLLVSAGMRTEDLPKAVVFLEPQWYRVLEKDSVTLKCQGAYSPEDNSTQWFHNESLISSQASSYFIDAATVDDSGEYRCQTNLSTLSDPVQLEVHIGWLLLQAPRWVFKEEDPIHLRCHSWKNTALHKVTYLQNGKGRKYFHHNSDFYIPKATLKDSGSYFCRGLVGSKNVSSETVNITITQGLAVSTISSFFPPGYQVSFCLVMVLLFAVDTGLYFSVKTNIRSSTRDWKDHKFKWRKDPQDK

B1: X3-KS-DF HM297-H5 (antibody)
chain 1: QVQLVQSGPEVKKPGASVKIPCKASGYTFTDYNVDWVRQVPGQGLEWMGDIDPNNGGTIYNQKFKDRVTMTVDKSTRTAYMELRSLRSDDTAVYYCARWRGAMDYWGQGTLVTVSSASTKGPSVFPLAPSSKSTSGGTAALGCLVKDYFPEPVTVSWNSGALTSGVHTFPAVLQSSGLYSLSSVVTVPSSSLGTQTYICNVNHKPSNTKVDKKVEPKSCDKTHTCPPCPAPELLGGPDVFLFPPKPKDTLMISRTPEVTCVVVDVGDEDPEVKFNWYVDGVEVHNAKTKPREEQYNSTYRVVSVLTVLHQDWLNGKEYKCAVSNKALPAPIEKTISKAKGQPREPQVYTLPPSRDELTKNQVSLTCLVKGFYPSDIAVEWESNGQPENNYKTTPPVLDSDGSFFLYSKLTVDKSRWQQGNVFSCSVMHEALHNHYTQKSLSLSPGK
chain 2: DIQMTQSPSSLSASVGDRVTITCRASQDIDNYLKWYQQKPDGTVKLLIYDTSRLHSGVPSRFSGSGSGTDYTLTISSLKQEDFATYYCQQGYTLPWTFGQGTKLEIKRTVAAPSVFIFPPSDEQLKSGTASVVCLLNNFYPREAKVQWKVDNALQSGNSQESVTEQDSKDSTYSLSSTLTLSKADYEKHKVYACEVTHQGLSSPVTKSFNRGEC
Molecule B1 returned a Kd in test [1] of 1220 nM.

B2: X4-K HM268-K8 (antibody)
chain 1: QVQLVQSGPEVKKPGASVKVVCKTSGYTFTSYYIQWLKQRPGQGLEWIGWIYFGDASTKYNEKFKGRVTMTADKSTSTAYMELRSLRSDDTAVYYCASYYGSYFDYWGQGTTVTVSSASTKGPSVFPLAPSSKSTSGGTAALGCLVKDYFPEPVTVSWNSGALTSGVHTFPAVLQSSGLYSLSSVVTVPSSSLGTQTYICNVNHKPSNTKVDKKVEPKSCDKTHTCPPCPAPELLGGPDVFLFPPKPKDTLMISRTPEVTCVVVDVSDEDPEVKFNWYVDGVEVHNAKTKPREEQYNSTYRVVSVLTVLHQDWLNGKEYKCAVSNKAYPAPEEKTISKAKGQPREPQVYTLPPSRDELTKNQVSLTCLVKGFYPSDIAVEWESNGQPENNYKTTPPVLDSDGSFFLYSKLTVDKSRWQQGNVFSCSVMHEALHNHYTQKSLSLSPGK
chain 2: B1 chain 2 with D30S, K34N, D50S, K79Q, Q80P, Y92S, W96F
For the molecule B2, the Kd in test [2] was found to be 236 nM; in test [3], 1050 nM.

B3: X2-K-DF HM242-C3 (antibody)
chain 1: QVQLVQSGPEVKKPGASVKVVCKASGYTFTSYYIQWVKQRPGQGLEWIGWIYPGDGTTKYNEKFKGRVTMTIDKSTRTAYMELRSLRSDDTAVYYCASYYGSYFDYWGQGTLVTVSSASTKGPSVFPLAPSSKSTSGGTAALGCLVKDYFPEPVTVSWNSGALTSGVHTFPAVLQSSGLYSLSSVVTVPSSSLGTQTYICNVNHKPSNTKVDKKVEPKSCDKTHTCPPCPAPELLDGPSVFLFPPKPKDTLMISRTPEVTCVVVDVSDEDPEVKFNWYVDGVEVHNAKTKPREEQYNSTYRVVSVLTVLHQDWLNGKEYKCAVSNKALPAPIEKTISKAKGQPREPQVYTLPPSRDELTKNQVSLTCLVKGFYPSDIAVEWESNGQPENNYKTTPPVLDSDGSFFLYSKLTVDKSRWQQGNVFSCSVMHEALHNHYTQKSLSLSPGK
chain 2: not shown
For B3, the Kd in test [1] is 1020 nM.

B4: X2-K HM268-K8 (antibody)
chain 1: B2 chain 1 with G236D, D239S, Y328L, E332I
chain 2: B1 chain 2 with D30S, K34N, D50S, K79Q, Q80P, Y92S, W96F
In the case of B4, the Kd amounted to 7560 nM in test [2] and 1650 nM in test [3].

B5: X3-KS-DF HM242-C3 (antibody)
chain 1: B3 chain 1 with D236G, S239D, S267G
chain 2: not shown
In test [1], B5 had a Kd of 1170 nM.
